The target of experiment [1] is HLA-DR molecule, DRB1*1101 (human). The experiment in a line: ELISA.
Experiment [2] addresses HLA-DR molecule, DRB1*0401 (human). The experiment in a line: ELISA. On the technique in general: ELISA stands for enzyme-linked immunosorbent assay.

Where no end group is shown, it is not given here.

We go through 3 molecules from publication PMC4323994 (Immunology and cell biology, 2014).

A word on the IC50: it is the point on the concentration scale where inhibition reaches its midpoint. Low readings indicate greater potency, high ones weaker potency. GKQLYNVEATSYALLALLQLKDFD (also: amino and carboxyl ends blocked) [C3d_(223–246)]: the IC50 in experiment [1] and in experiment [2] was less than 2000 nM each time.

VPPVVRWLNEQRYYGGGY (also: amino and carboxyl ends blocked) [C3d_(248–265)]: in experiment [1], the IC50 is less than 2000 nM.

Turning to QATFMVFQALAQYQKDAP (also: amino and carboxyl ends blocked) [C3d_(269–286)], the IC50 in experiment [1] was less than 2000 nM.
